In experiment [1] the target is T1, His-tagged, full-length PCSK9 (human, UniProt Q8NBP7 31-692).
T1 construct: The secreted protein is autocleaved into a prodomain and a catalytic/Cys-rich chain that starts at S153; also called His-PCSK9
The experiment can be described thus: TR-FRET competition; His-PCSK9, competitor EGF(A)-Fc. (In general: In TR-FRET formats the signal depends on donor and acceptor labels being close together.)
Protocol: (§1) Signal generation in the PCSK9 binding assays was dependent upon the binding interaction to bring into close proximity the His-tag on the PCSK9 and the Fc-tag on the ligand. Anti-His-APC was bound to the His-tag, and anti-Fc-europium was bound to the Fc-tag.
(§2) Compounds were solubilized and dilutions were prepared in DMSO. […] The plate was centrifuged to mix the well contents and allowed to incubate for 30 min. […] The normalized TR-FRET ratios were plotted as a function of the compound concentrations, and the IC₅₀ values were determined using a 4-parameter logistic regression.

In a further experiment the target is T2, His-tagged PCSK9Δhelix (human, UniProt Q8NBP7 31-152; Q8NBP7 168-692).
T2 construct: Construct M1-Q692 with engineered TEV site, cut by TEV protease; new N-terminus of the catalytic domain is S-A168; also called His-PCSK9Δhelix
T2 sequence (Q8NBP7 31-152, stated change not applied, chain 1 of 2): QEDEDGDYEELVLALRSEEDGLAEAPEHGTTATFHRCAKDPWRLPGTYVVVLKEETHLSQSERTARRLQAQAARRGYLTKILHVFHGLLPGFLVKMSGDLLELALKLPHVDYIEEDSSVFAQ
T2 sequence (Q8NBP7 other isoform, or with tags, fused parts or gaps mutant, chain 2 of 2): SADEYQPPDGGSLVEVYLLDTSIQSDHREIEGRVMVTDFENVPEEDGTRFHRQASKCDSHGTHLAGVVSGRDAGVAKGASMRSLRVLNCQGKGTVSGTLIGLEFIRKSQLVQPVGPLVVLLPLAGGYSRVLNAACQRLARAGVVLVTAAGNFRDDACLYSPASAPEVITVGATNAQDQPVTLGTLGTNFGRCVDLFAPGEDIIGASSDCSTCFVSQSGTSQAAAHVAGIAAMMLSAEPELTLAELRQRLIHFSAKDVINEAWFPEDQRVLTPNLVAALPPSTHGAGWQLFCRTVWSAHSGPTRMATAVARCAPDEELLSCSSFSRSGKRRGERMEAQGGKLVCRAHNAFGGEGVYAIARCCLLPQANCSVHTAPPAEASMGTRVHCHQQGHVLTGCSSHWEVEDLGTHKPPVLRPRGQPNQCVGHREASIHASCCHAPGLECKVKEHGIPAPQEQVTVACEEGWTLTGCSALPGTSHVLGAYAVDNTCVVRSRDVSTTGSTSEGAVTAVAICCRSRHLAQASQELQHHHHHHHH
The experiment can be described thus: TR-FRET competition; His-PCSK9Δhelix, competitor Ab20.

Broadly, the IC50 is the concentration needed to halve the response being measured. A high value points to lower potency.

Square brackets hold non-standard residues; d marks the D form. Ends that are not written are not given here. hArg = N=C(N)NCCCC[C@H](N)C(=O)O

T1 sequence (Q8NBP7 other isoform, or with tags, fused parts or gaps limits assumed): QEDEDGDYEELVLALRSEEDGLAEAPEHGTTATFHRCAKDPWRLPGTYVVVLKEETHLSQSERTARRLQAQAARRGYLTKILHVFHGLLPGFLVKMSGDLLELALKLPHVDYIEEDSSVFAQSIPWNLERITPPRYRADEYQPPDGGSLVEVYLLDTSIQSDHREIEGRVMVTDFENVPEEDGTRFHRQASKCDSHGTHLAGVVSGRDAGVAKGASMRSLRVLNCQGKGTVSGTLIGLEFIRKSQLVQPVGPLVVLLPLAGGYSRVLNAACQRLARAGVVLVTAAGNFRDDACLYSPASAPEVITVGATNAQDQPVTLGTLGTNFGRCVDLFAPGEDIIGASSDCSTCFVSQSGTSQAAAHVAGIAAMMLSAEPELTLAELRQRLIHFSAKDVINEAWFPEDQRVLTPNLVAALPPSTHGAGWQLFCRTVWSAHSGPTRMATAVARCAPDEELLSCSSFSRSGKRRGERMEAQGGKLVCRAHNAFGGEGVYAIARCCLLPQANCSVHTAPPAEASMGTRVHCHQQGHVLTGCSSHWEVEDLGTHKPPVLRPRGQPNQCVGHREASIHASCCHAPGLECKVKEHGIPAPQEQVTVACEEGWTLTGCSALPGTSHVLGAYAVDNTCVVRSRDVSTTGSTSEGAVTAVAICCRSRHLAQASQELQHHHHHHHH
Protocol for His-tagged PCSK9Δhelix: as §1, §2

B1: Compound 219 (peptide)
peptide: WNLV[hArg]IGLLR
modifications: also: further groups not given here
notes: Structure printed only as a drawing
Consider B1, for which the half-maximal inhibitory concentration (IC50) worked out at 9.9 µM in experiment [1] and 0.68 µM in the experiment with His-tagged PCSK9Δhelix.

B2: Compound 208 (peptide)
peptide: WNLV[hArg]IGLLR
modifications: also: further groups not given here
notes: as for B1
As for B2, the IC50 in experiment [1] turned out to be 0.45 µM; with His-tagged PCSK9Δhelix it was 0.1 µM.

B3: Compound 206 (peptide)
peptide: WNLV[hArg]IGLLR
modifications: also: further groups not given here
notes: as for B1
Regarding B3, the figures for the concentration for half-maximal inhibition (IC50) (in experiment [1]; with His-tagged PCSK9Δhelix) were 1.8 µM and 0.87 µM, respectively.

B4: Compound 220 (peptide)
peptide: WNLV[hArg]IGLLR
modifications: also: further groups not given here
notes: as for B1
Consider B4, for which the half-inhibitory concentration (IC50) is 37 µM in experiment [1] and 0.91 µM with His-tagged PCSK9Δhelix.

B5: Compound 224 (peptide)
peptide: WNLV[hArg]IGLLR
modifications: also: further groups not given here
notes: as for B1
Take B5: the figures for the IC50 (in experiment [1]; in the experiment with His-tagged PCSK9Δhelix) were 7 µM and 0.53 µM, respectively.

B6: Compound 225 (peptide)
peptide: WNLV[hArg]IGLLR
modifications: also: further groups not given here
notes: as for B1
Consider B6, for which the IC50 is 27 µM in experiment [1] and 1.8 µM in the experiment with His-tagged PCSK9Δhelix.

B7: Compound 226 (peptide)
peptide: WNLV[hArg]IGLLR
modifications: also: further groups not given here
notes: as for B1
As to B7, the IC50 in experiment [1] worked out at 6.2 µM; in the experiment with His-tagged PCSK9Δhelix, 0.35 µM.

B8: Compound 218 (peptide)
peptide: WNLV[hArg]IGLLR
modifications: also: further groups not given here
notes: as for B1
As for B8, the half-inhibitory concentration (IC50) in experiment [1] is 5 µM; in the experiment with His-tagged PCSK9Δhelix, 0.26 µM.

B9: Compound 223 (peptide)
peptide: WNLV[hArg]IGLLR
modifications: also: further groups not given here
notes: as for B1
Regarding B9, the figures for the IC50 (in experiment [1]; with His-tagged PCSK9Δhelix) were 21 µM and 1.4 µM, respectively.

B10: Compound 193 (peptide)
peptide: WNLV[hArg]IGLLR
modifications: also: end groups and other groups only in drawing
notes: as for B1
As for B10, the 50% inhibitory concentration (IC50) was no less than 50 µM in experiment [1] and 1.5 µM in the experiment with His-tagged PCSK9Δhelix.

B11: Compound 222 (peptide)
peptide: WNLV[hArg]IGLLR
modifications: also: further groups not given here
notes: as for B1
In the case of B11, the 50% inhibitory concentration (IC50) in experiment [1] stood at 21 µM; with His-tagged PCSK9Δhelix it was 1.4 µM.

B12: Compound 205 (peptide)
peptide: WNLV[hArg]IGLLR
modifications: also: end groups and other groups only in drawing
notes: as for B1
With B12, the figures for the 50% inhibitory concentration (IC50) (in experiment [1]; with His-tagged PCSK9Δhelix) were 2.8 µM and 0.64 µM, respectively.

B13: Compound 211 (peptide)
peptide: WNLV[hArg]IGLLR
modifications: also: further groups not given here
notes: as for B1
B13: the 50% inhibitory concentration (IC50) was found to be 14 µM in experiment [1] and 3.8 µM in the experiment with His-tagged PCSK9Δhelix.

B14: Compound 207 (peptide)
peptide: WNLV[hArg]IGLLR
modifications: also: further groups not given here
notes: as for B1
With B14, the IC50 was found to be 1.3 µM in experiment [1] and 0.32 µM in the experiment with His-tagged PCSK9Δhelix.

B15: Compound 196 (peptide)
peptide: WNLV[hArg]IGLLR
modifications: also: end groups and other groups only in drawing
notes: as for B1
Regarding B15, the half-maximal inhibitory concentration (IC50) in experiment [1] came to 7.3 µM; with His-tagged PCSK9Δhelix, 1.4 µM.

B16: Compound 217 (peptide)
peptide: WNLV[hArg]IGLLR
modifications: also: further groups not given here
notes: as for B1
Take B16: the half-inhibitory concentration (IC50) in experiment [1] was found to be 4.1 µM; with His-tagged PCSK9Δhelix it was 0.39 µM.

B17: Compound 201 (peptide)
peptide: WNLV[hArg]IGLLR
modifications: also: end groups and other groups only in drawing
notes: as for B1
With B17, the IC50 in experiment [1] amounted to 3.9 µM; in the experiment with His-tagged PCSK9Δhelix it was 1 µM.

B18: Compound 213 (peptide)
peptide: WNLV[hArg]IGLLR
modifications: also: further groups not given here
notes: as for B1
With B18, the IC50 was 3.8 µM in experiment [1] and 0.2 µM with His-tagged PCSK9Δhelix.

B19: Compound 199 (peptide)
peptide: WNLV[hArg]IGLLR
modifications: also: end groups and other groups only in drawing
notes: as for B1
Regarding B19, the half-inhibitory concentration (IC50) stood at 0.98 µM in experiment [1] and 0.2 µM with His-tagged PCSK9Δhelix.

B20: Compound 198 (peptide)
peptide: WNLV[hArg]IGLLR
modifications: also: end groups and other groups only in drawing
notes: as for B1
Consider B20, for which the values for the IC50 (in experiment [1]; in the experiment with His-tagged PCSK9Δhelix) were 1.7 µM and 0.25 µM, respectively.

B21: Compound 197 (peptide)
peptide: WNLV[hArg]IGLLR
modifications: also: end groups and other groups only in drawing
notes: as for B1
Turning to B21, the results for the IC50 (in experiment [1]; in the experiment with His-tagged PCSK9Δhelix) were 0.97 µM and 0.09 µM, respectively.

B22: Compound 215 (peptide)
peptide: WNLV[hArg]IGLLR
modifications: also: further groups not given here
notes: as for B1
With B22, the figures for the IC50 (in experiment [1]; in the experiment with His-tagged PCSK9Δhelix) were 7 µM and 0.48 µM, respectively.

B23: Compound 200 (peptide)
peptide: WNLV[hArg]IGLLR
modifications: also: end groups and other groups only in drawing
notes: as for B1
B23: the 50% inhibitory concentration (IC50) in experiment [1] is 3.2 µM; with His-tagged PCSK9Δhelix it was 0.67 µM.

B24: Compound 192 (peptide)
peptide: Ac-WNLV[hArg]IGLLR-NH2
notes: also called Ac-WNLV(homoR)IGLLR-NH2
Take B24: the concentration for half-maximal inhibition (IC50) was no less than 50 µM in experiment [1] and 5.3 µM in the experiment with His-tagged PCSK9Δhelix.

B25: Compound 202 (peptide)
peptide: WNLV[hArg]IGLLR
modifications: also: end groups and other groups only in drawing
notes: as for B1
As to B25, the half-maximal inhibitory concentration (IC50) was 2.6 µM in experiment [1] and 0.34 µM with His-tagged PCSK9Δhelix.

B26: Compound 210 (peptide)
peptide: WNLV[hArg]IGLLR
modifications: also: further groups not given here
notes: as for B1
With B26, the IC50 worked out at 3 µM in experiment [1] and 0.84 µM with His-tagged PCSK9Δhelix.

B27: Compound 231 (peptide)
peptide: Ac-ESYPGWNLV[hArg]IGLLR-NH2
SMILES: CC[C@H](C)[C@H](NC(=O)[C@H](CCCCNC(=N)N)NC(=O)[C@@H](NC(=O)[C@H](CC(C)C)NC(=O)[C@H](CC(N)=O)NC(=O)[C@H](Cc1c[nH]c2ccccc12)NC(=O)CNC(=O)[C@@H]1CCCN1C(=O)[C@H](Cc1ccc(O)cc1)NC(=O)[C@H](CO)NC(=O)[C@H](CCC(=O)O)NC(C)=O)C(C)C)C(=O)NCC(=O)N[C@@H](CC(C)C)C(=O)N[C@@H](CC(C)C)C(=O)N[C@@H](CCCNC(=N)N)C(N)=O
On to B27, for which the concentration for half-maximal inhibition (IC50) in experiment [1] was determined as 1.6 µM; in the experiment with His-tagged PCSK9Δhelix, 17 µM.

B28: Compound 204 (peptide)
peptide: WNLV[hArg]IGLLR
modifications: also: further groups not given here
notes: as for B1
Turning to B28, the IC50 in experiment [1] amounted to 3.6 µM; with His-tagged PCSK9Δhelix it was 0.87 µM.

B29: Compound 209 (peptide)
peptide: WNLV[hArg]IGLLR
modifications: also: further groups not given here
notes: as for B1
In the case of B29, the IC50 was determined as 2.9 µM in experiment [1] and 0.45 µM in the experiment with His-tagged PCSK9Δhelix.

B30: Compound 216 (peptide)
peptide: WNLV[hArg]IGLLR
modifications: also: further groups not given here
notes: as for B1
B30: the IC50 is 6 µM in experiment [1] and 0.3 µM in the experiment with His-tagged PCSK9Δhelix.

B31: Compound 214 (peptide)
peptide: WNLV[hArg]IGLLR
modifications: also: further groups not given here
notes: as for B1
In the case of B31, the half-maximal inhibitory concentration (IC50) worked out at 3 µM in experiment [1] and 0.21 µM with His-tagged PCSK9Δhelix.

B32: Compound 194 (peptide)
peptide: WNLV[hArg]IGLLR
modifications: also: end groups and other groups only in drawing
notes: as for B1
As for B32, the half-maximal inhibitory concentration (IC50) in experiment [1] is no less than 50 µM; in the experiment with His-tagged PCSK9Δhelix, 1.9 µM.

B33: Compound 237 (peptide)
peptide: WNLV[hArg]IGLLQ-NH2
modifications: N-terminus assumed
SMILES: CC[C@H](C)[C@H](NC(=O)[C@H](CCCCNC(=N)N)NC(=O)[C@@H](NC(=O)[C@H](CC(C)C)NC(=O)[C@H](CC(N)=O)NC(=O)[C@@H](N)Cc1c[nH]c2ccccc12)C(C)C)C(=O)NCC(=O)N[C@@H](CC(C)C)C(=O)N[C@@H](CC(C)C)C(=O)N[C@@H](CCC(N)=O)C(N)=O
notes: also called WNLV(homoR)IGLLQ-NH2
With B33, the IC50 is 8.8 µM in experiment [1] and 0.33 µM with His-tagged PCSK9Δhelix.

B34: Compound 238 (peptide)
peptide: WNLV[hArg]IGLLN
modifications: also: further groups not given here
notes: as for B1
As for B34, the results for the 50% inhibitory concentration (IC50) (in experiment [1]; with His-tagged PCSK9Δhelix) were 7.7 µM and 0.33 µM, respectively.

B35: Compound 203 (peptide)
peptide: WNLV[hArg]IGLLR
modifications: also: end groups and other groups only in drawing
notes: as for B1
In the case of B35, the IC50 in experiment [1] came out at 21 µM; with His-tagged PCSK9Δhelix, 1.6 µM.

B36: Compound 221 (peptide)
peptide: WNLV[hArg]IGLLR
modifications: also: further groups not given here
notes: as for B1
Take B36: the concentration for half-maximal inhibition (IC50) in experiment [1] was 9.5 µM; with His-tagged PCSK9Δhelix, 0.65 µM.

B37: Compound 212 (peptide)
peptide: WNLV[hArg]IGLLR
modifications: also: further groups not given here
notes: as for B1
In the case of B37, the half-inhibitory concentration (IC50) in experiment [1] came out at 15 µM; with His-tagged PCSK9Δhelix, 1.6 µM.

The record behind these values is patent US20200283478A1 (Genentech, published 2020).
